In patent publication US20110028688A1 (published 2011):
Substitutions are numbered along the chain they refer to. Numbers in names are those of the source.

T1: human OX40 receptor (hOX40), residues 29-170 (human, UniProt P43489 29-170, in the competition ELISA only: biotinylated with a 4 fold molar excess of biotin-NHS-LC (sites not given))
T1 construct: Secreted from High Five insect cells (baculovirus), His-tag cleaved; also called hOX40 receptor; monomeric hOX40
T1 sequence: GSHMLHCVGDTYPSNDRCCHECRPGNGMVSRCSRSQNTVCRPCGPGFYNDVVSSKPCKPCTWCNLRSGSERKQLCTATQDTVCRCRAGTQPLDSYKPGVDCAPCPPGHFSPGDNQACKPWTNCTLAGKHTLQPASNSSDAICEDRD

T2: human OX40 receptor (hOX40), residues 29-170 (human, UniProt P43489 29-170, biotinylated with biotin-NHS-LC in the competition ELISA (Table II); not biotinylated in the crystals (Tables 6 and 7))
T2 construct: Monomeric soluble receptor fragment; also called hOX40Receptor; HOX40 receptor
T2 sequence: T1 sequence

B1: human OX40L residues 51-183 N90D, N114D, F180A (ligand)
chain: GSHMQVSHRYPRIQSIKVQFTEYKKEKGFILTSQKEDEIMKVQDNSVIINCDGFYLISLKGYFSQEVDISLHYQKDEEPLFQLKKVRSVNSLMVASLTYKDKVYLNVTTDNTSLDDFHVNGGELILIHQNPGEACVL
notes: Single alanine mutant in the N90D, N114D background
B2: human OX40L residues 51-183 N90D, N114D, N166A (ligand)
chain: B1 chain with N120A, A134F
notes: as for B1
B3: human OX40L F180A in the N90D, N114D background, residues 51-183 (ligand)
chain: B1 chain
notes: Properly assembled trimer by size exclusion chromatography
B4: human OX40L N166A in the N90D, N114D background, residues 51-183 (ligand)
chain: B1 chain with N120A, A134F
notes: as for B3
B5: human OX40L residues 51-183 N90D, N114D, D162A (ligand)
chain: B1 chain with D116A, A134F
notes: as for B1
B6: human OX40L residues 51-183 N90D, N114D, Q80A (ligand)
chain: B1 chain with Q34A, A134F
notes: as for B1
B7: human OX40L (hOX40L), wild type, residues 51-183 (ligand)
chain: B1 chain with D44N, D68N, A134F
notes: Homotrimer; also called WT; OX40 ligand
B8: human OX40L D162A in the N90D, N114D background, residues 51-183 (ligand)
chain: B1 chain with D116A, A134F
notes: as for B3
B9: human OX40L E123A in the N90D, N114D background, residues 51-183 (ligand)
chain: B1 chain with E77A, A134F
notes: as for B3
B10: human OX40L Q80A in the N90D, N114D background, residues 51-183 (ligand)
chain: B1 chain with Q34A, A134F
notes: as for B3
B11: human OX40L T144A in the N90D, N114D background, residues 51-183 (ligand)
chain: B1 chain with T98A, A134F
notes: as for B3
B12: human OX40L (hOX40L) N90D, N114D double glycosylation mutant, residues 51-183 (ligand)
chain: B1 chain with A134F
notes: Homotrimer; also called hOX40Ligand; hOX40L double glycosylation mutant

These binders were tested against T1, human OX40 receptor (hOX40), residues … (assay: competition ELISA (biotinylated hOX40 pre-incubated with mutant, unbound receptor captured on mOX40L-coated plate)).
B1: no binding. B2: no binding.

The binders below were run against T2, human OX40 receptor (hOX40), residues … (assay: competition ELISA; mutant in solution with biotinylated hOX40, unbound receptor captured on mOX40L-coated plate (N.D.: no detectable competition)).
B3: no binding. B4: no binding.

These binders were tested against T1, human OX40 receptor (hOX40), residues … (assay: competition ELISA, alanine mutant against the N90D, N114D reference).
B5 was tested, and the “fold change in IC50” value was at least 3 fold. For B6, the “fold change in IC50” value was at least 3 fold.

What follows are binders tested against T2, human OX40 receptor (hOX40), residues … (assay: competition ELISA; relative to hOX40L N90D, N114D).
With B7 the “Fold-change in IC50 (Mutant/N90D, N114D)” value was 2.2 fold. For B8, the “Fold-change in IC50 (Mutant/N90D, N114D)” value was 6.9 fold. In the case of B9, the “Fold-change in IC50 (Mutant/N90D, N114D)” value is reported as 3 fold. For B10, the “Fold-change in IC50 (Mutant/N90D, N114D)” value was 8.6 fold. In the case of B11, the “Fold-change in IC50 (Mutant/N90D, N114D)” value is reported as 2.2 fold.

What follows are binders tested against T2, human OX40 receptor (hOX40), residues … (assay: competition ELISA; hOX40L in solution with biotinylated hOX40, unbound receptor captured on plate-coated mOX40L (competitor)).
Binder B7 has an IC50 of 139 nM. Binder B12 has an IC50 of 62 nM. Work on B8 yielded an IC50 of 425 nM. Binder B9 has an IC50 of 186 nM. Work on B10 yielded an IC50 of 537 nM. B11 gave an IC50 of 139 nM.
